{
  "source": "paper PMC9174178",
  "about": "(Cell Reports, 2022)",
  "key": {"[1]": {"target": "T1, SARS-CoV receptor-binding domain (RBD) (SARS-CoV (AAP13441.1), UniProt P59594)"}, "[2]": {"target": "SARS-CoV-2 receptor-binding domain (RBD) (SARS-CoV-2 (MN985325.1), UniProt P0DTC2)"}, "[3]": {"target": "SHC014-CoV receptor-binding domain (RBD) (Bat SARS-like coronavirus RsSHC014, UniProt U5WLK5)", "assay": "ELISA"}, "[4]": {"target": "Rs4092-CoV receptor-binding domain (RBD) (Bat SARS-like coronavirus Rs4092, UniProt A0A2D1PX37)", "assay": "ELISA"}, "[5]": {"target": "Rf1-CoV receptor-binding domain (RBD) (Bat SARS CoV Rf1/2004, UniProt Q0QDZ0)", "assay": "ELISA"}, "[6]": {"target": "Rp3-CoV receptor-binding domain (RBD) (Bat SARS-like coronavirus Rp3/2004, UniProt Q3I5J5)", "assay": "ELISA"}, "[7]": {"target": "Shaanxi2011-CoV receptor-binding domain (RBD) (Bat coronavirus Rp/Shaanxi2011, UniProt R9QTA0)", "assay": "ELISA"}, "[8]": {"target": "BtkY72-CoV receptor-binding domain (RBD) (Bat coronavirus BtKY72, UniProt A0A3Q8AKM0)", "assay": "ELISA"}, "[9]": {"target": "W1V1-CoV receptor-binding domain (RBD) (Bat SARS-like coronavirus WIV1, UniProt U5WI05)", "assay": "ELISA"}, "[10]": {"target": "YN2013-CoV receptor-binding domain (RBD) (BtRs-BetaCoV/YN2013, UniProt A0A0U1WJY8)", "assay": "ELISA"}, "[11]": {"target": "RaTG13-CoV receptor-binding domain (RBD) (Bat coronavirus RaTG13, UniProt A0ABF7PLN6)", "assay": "ELISA"}, "[12]": {"target": "Rs4081-CoV receptor-binding domain (RBD) (Bat SARS-like coronavirus Rs4081, UniProt A0A2D1PX44)", "assay": "ELISA"}, "[13]": {"target": "Rs7327-CoV receptor-binding domain (RBD) (Bat SARS-like coronavirus Rs7327, UniProt A0A2D1PXC0)", "assay": "ELISA"}, "[14]": {"target": "pangolin17-CoV receptor-binding domain (RBD) (Pangolin coronavirus (pangolin17, …))", "assay": "ELISA"}, "[15]": {"target": "HKU3-1-CoV receptor-binding domain (RBD) (Bat coronavirus HKU3-1, UniProt Q3LZX1)", "assay": "ELISA"}, "[16]": {"target": "ZC45-CoV receptor-binding domain (RBD) (Bat SARS-like coronavirus ZC45, UniProt A0A2R3SUW7)", "assay": "ELISA"}, "[17]": {"target": "Yun11-CoV receptor-binding domain (RBD) (Bat coronavirus Cp/Yunnan2011, UniProt R9QTH3)", "assay": "ELISA"}, "[18]": {"target": "T1, SARS-CoV receptor-binding domain (RBD)", "assay": "SPR"}, "[19]": {"target": "T2, BM-4831-CoV receptor-binding domain (RBD) (Bat coronavirus BM48-31/BGR/2008)", "assay": "SPR"}, "[20]": {"target": "T2, BM-4831-CoV receptor-binding domain …", "assay": "ELISA"}},
  "data": [
    {"binder": "1-28 (VHH) VHH: QVQLVESGGGLVQAGGSLRLSCAVSGRTVSTYGMAWFRQTPGKKRDFVATITRSEGTTFYADSVKGRFTISRDNAKNTVYLQMNSLKIEDTAVYYCAVRRDSSWGYSRDLFEYDDWGQGTQVTVSS", "values": [
      {"measurement": "binding result", "setting": "[1]", "result": "binds"},
      {"measurement": "binding result", "setting": "[2]", "result": "binds"}
    ]},
    {"binder": "psNb 2-31 (VHH) VHH: QVQLVESGGGLVQAGESLRLSCAASKPTFRNFAAGWFRQTPGKDREFVAVIEYDGDSAYYADSVKGRFTISRDNAKNTVYLQMNRLKPGDTAVYICAIGGNHYDPSKYYTADEYDYWGQGTQVTVSS", "values": [
      {"measurement": "binding result", "setting": "[3]", "result": "binds"},
      {"measurement": "binding result", "setting": "[4]", "result": "binds"},
      {"measurement": "binding result", "setting": "[5]", "result": "binds"},
      {"measurement": "binding result", "setting": "[6]", "result": "binds"},
      {"measurement": "binding result", "setting": "[7]", "result": "binds"},
      {"measurement": "binding result", "setting": "[8]", "result": "binds"},
      {"measurement": "binding result", "setting": "[9]", "result": "binds"},
      {"measurement": "binding result", "setting": "[10]", "result": "binds"},
      {"measurement": "binding result", "setting": "[11]", "result": "binds"},
      {"measurement": "binding result", "setting": "[12]", "result": "binds"},
      {"measurement": "binding result", "setting": "[13]", "result": "binds"},
      {"measurement": "binding result", "setting": "[14]", "result": "binds"},
      {"measurement": "binding result", "setting": "[15]", "result": "binds"},
      {"measurement": "binding result", "setting": "[16]", "result": "binds"},
      {"measurement": "binding result", "setting": "[17]", "result": "binds"},
      {"measurement": "Kd", "setting": "[18]", "result": 0.00396, "unit": "nM"},
      {"measurement": "Kd", "setting": "[19]", "result": 3.6, "unit": "nM"}
    ]},
    {"binder": "psNb 2-45 (VHH) VHH: QVQLVESGGGLVQAGGSLRLSCTASGYDFSILAIAWYRQAPGKERELVAAISRVGSTDYADSVKGRFTISRDNTKNTVSLQMDSLKPEDTAVYYCNAGIPMTTVLSGLGFWGQGTQVTVSS", "values": [
      {"measurement": "binding result", "setting": "[3]", "result": "binds"},
      {"measurement": "binding result", "setting": "[4]", "result": "binds"},
      {"measurement": "binding result", "setting": "[5]", "result": "binds"},
      {"measurement": "binding result", "setting": "[6]", "result": "binds"},
      {"measurement": "binding result", "setting": "[7]", "result": "binds"},
      {"measurement": "binding result", "setting": "[8]", "result": "binds"},
      {"measurement": "binding result", "setting": "[9]", "result": "binds"},
      {"measurement": "binding result", "setting": "[10]", "result": "binds"},
      {"measurement": "binding result", "setting": "[11]", "result": "binds"},
      {"measurement": "binding result", "setting": "[12]", "result": "binds"},
      {"measurement": "binding result", "setting": "[13]", "result": "binds"},
      {"measurement": "binding result", "setting": "[14]", "result": "binds"},
      {"measurement": "binding result", "setting": "[15]", "result": "binds"},
      {"measurement": "binding result", "setting": "[16]", "result": "binds"},
      {"measurement": "binding result", "setting": "[17]", "result": "binds"},
      {"measurement": "Kd", "setting": "[18]", "result": 304, "unit": "nM"},
      {"measurement": "Kd", "setting": "[19]", "result": 0.044, "unit": "nM"}
    ]},
    {"binder": "psNb 2-34 (VHH) VHH: HVQLVESGGGLVQAGGSLRLSCAASGRTFSRYAAGWFRQAPGKEREFVAVIEWDGDSAYYADPVKGRFTISRDNAKNTVYLQMNRLKPEDTAVYICAVGGNHYSRSKYYNLDEYDDWGQGTQVTVSS", "values": [
      {"measurement": "binding result", "setting": "[3]", "result": "binds"},
      {"measurement": "binding result", "setting": "[20]", "result": "binds"},
      {"measurement": "binding result", "setting": "[4]", "result": "binds"},
      {"measurement": "binding result", "setting": "[5]", "result": "binds"},
      {"measurement": "binding result", "setting": "[6]", "result": "binds"},
      {"measurement": "binding result", "setting": "[7]", "result": "binds"},
      {"measurement": "binding result", "setting": "[8]", "result": "binds"},
      {"measurement": "binding result", "setting": "[9]", "result": "binds"},
      {"measurement": "binding result", "setting": "[10]", "result": "binds"},
      {"measurement": "binding result", "setting": "[11]", "result": "binds"},
      {"measurement": "binding result", "setting": "[12]", "result": "binds"},
      {"measurement": "binding result", "setting": "[13]", "result": "binds"},
      {"measurement": "binding result", "setting": "[14]", "result": "binds"},
      {"measurement": "binding result", "setting": "[15]", "result": "binds"},
      {"measurement": "binding result", "setting": "[16]", "result": "binds"},
      {"measurement": "binding result", "setting": "[17]", "result": "binds"}
    ]},
    {"binder": "psNb 2-38 (VHH) VHH: QVQLVESGGGLVQAGGSLRLSCAAAARFSTSAMGWFRQAPGKEREFVAAISWSNTNTHYADTVKGRFTISADTAKETVDLQMNSLKPEDTAVYYCVQGGWGIRQPIIVDYWGKGTQVTVSS", "values": [
      {"measurement": "binding result", "setting": "[20]", "result": "binds"}
    ]},
    {"binder": "psNb 1-22 (VHH) VHH: HVQLVESGGGLVQPGGSLRLSCAASGRSFNSYLMGWFRQAPGKEREFVAWISGSPHDIIRYRDSVKDRFTISRDNAKNTVYLQMNSLKPVDTAVYYCAVGSLRVGSFSPDYWGQGTQVTVSS", "values": [
      {"measurement": "binding result", "setting": "[20]", "result": "binds"}
    ]},
    {"binder": "psNb 1-23 (VHH) VHH: QVQLVESGGGLVQAGGSLRLSCAASGRTDSISDMGWFRQAPGKEREFVAVVGWSGGGTDYAHSVKGRFTISRDNAKNTVYLQMNSLKPEDTAVYYCAVGSLRVGSFSVEYWGQGTQVTVSS", "values": [
      {"measurement": "binding result", "setting": "[20]", "result": "binds"}
    ]},
    {"binder": "psNb 2-65 (VHH) VHH: HVQLVESGGGLVQAGGSLRLSCAASGTISTLNAMGWYRQAPGKQRELLASISNLGTTYHADSVAGRFTISRGSAKNTVNLQMNSLKPDDTAVYYCNTRVLEGGTQIRDYWGQGTQVTVSS", "values": [
      {"measurement": "binding result", "setting": "[20]", "result": "binds"}
    ]}
  ]
}
